Reference: US20200223889A1 (Novo Nordisk, published 2020)
Positions of bridges follow the written chain, without caps; N, C: chain ends. Non-standard residues stand in square brackets, D forms with d.

Key:
[1] = biological target: T1, human melanocortin 4 receptor (human, UniProt P32245 1-332); test: cell-based or functional assay
[2] = biological target: human melanocortin 1 receptor (human, UniProt Q01726 1-317); test: cell-based or functional assay
[3] = biological target: T1, human melanocortin 4 receptor; test: competition with 125-NDP-α-MSH, BHK human MC4R membranes
Method: In order to assess the binding affinity of the selected compounds for the human MC4R competitive binding assays was performed with radiolabeled NDP-alpha MSH (¹²⁵NDP-α-MSH).
The assay was performed in 96-well filterplates (Unifilter) using BHK cells stably expressing the human MC4 receptor.
The BHK cell membranes were prepared from frozen or fresh cells that were homogenized in 20 mM HEPES pH 7.1, 5 mM MgCl₂, 1 mg/ml bacitracin (buffer 1) and centrifuged at 15000 rpm at 4° C., 10 min in a Sorvall RC 5B plus, SS-34 rotor. The supernatant was discarded, and the pellets were re-suspended in buffer 1, homogenized and centrifuged two more times. The final pellets were re-suspended in buffer 1 and the protein concentration was measured and adjusted with buffer 1 to 5 mg/ml and the membrane preparation was kept at −80° C. until assay. The assay was run on a dilution of this cell membrane suspension without any further preparation. The suspension was diluted to give maximally 10% specific binding, i.e. to approx. 50-100 fold dilution, optimized after each membrane preparation. The assay was performed in a total volume of 200 μl: 50 μl of cell suspension, 50 μl of ¹²⁵NDP-α-MSH (apx. […] in final concentration), 50 μl of test compound and 50 μl binding buffer were mixed and incubated for 2 h at 25° C. (binding buffer: 25 mM HEPES, pH 7.0, 1 mM CaCl₂), 1 mM MgSO₄, 1 mM EGTA, 0.005% Tween™ 20 and 0.1% HSA or, alternatively, 0.1% ovalbumin (Sigma; catalogue No. A-5503)). Test compounds were dissolved in 100% DMSO and diluted in binding buffer in a dose range from 1 μM to 0.001 nM. Radiolabelled ligand and membranes were diluted in binding buffer. The incubation was stopped by dilution with 8×100 μl ice-cold 0.9% NaCl. The radioactivity retained on the filters was counted using a Packard Topcounter. The data were analysed by non-linear regression analysis of binding curves, using the Windows™ program GraphPad™ Prism (GraphPad Software, USA).

T1 sequence (P32245 whole entry): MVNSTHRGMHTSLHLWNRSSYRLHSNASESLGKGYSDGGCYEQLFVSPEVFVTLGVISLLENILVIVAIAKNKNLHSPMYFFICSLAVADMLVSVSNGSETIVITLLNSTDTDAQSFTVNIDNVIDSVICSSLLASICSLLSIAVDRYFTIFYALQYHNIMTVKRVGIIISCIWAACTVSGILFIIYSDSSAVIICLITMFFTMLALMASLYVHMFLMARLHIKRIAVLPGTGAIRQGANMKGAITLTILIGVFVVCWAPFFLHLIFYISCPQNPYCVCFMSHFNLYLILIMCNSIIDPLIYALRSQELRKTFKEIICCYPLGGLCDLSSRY
human melanocortin 1 receptor, sequence (Q01726 whole entry): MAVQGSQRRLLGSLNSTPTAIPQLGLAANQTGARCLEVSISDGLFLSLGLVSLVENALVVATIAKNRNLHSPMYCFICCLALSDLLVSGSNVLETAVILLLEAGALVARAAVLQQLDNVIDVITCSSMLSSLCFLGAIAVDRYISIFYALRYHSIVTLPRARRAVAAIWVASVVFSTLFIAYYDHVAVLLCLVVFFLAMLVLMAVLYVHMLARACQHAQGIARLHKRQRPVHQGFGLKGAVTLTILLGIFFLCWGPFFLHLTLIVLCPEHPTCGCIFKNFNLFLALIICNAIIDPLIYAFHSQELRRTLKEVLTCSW

Row | Binder | MC4R cAMP EC50 [1] | MC1R cAMP EC50 [2] | Ki [3]
1 | cyclo(CPH[dF]HWCKKKKW) (disulfide 1-7, also called c[c[Cys-Pro-His-D-Phe-His-Trp-Cys]-Lys-Lys-Lys-Lys-Trp]) [Chem. 75] | 0.44 nM | 68 nM | 0.11 nM
2 | cyclo(CPH[dF]HWCAHKKR) (disulfide 1-7; SMILES C[C@@H]1NC(=O)[C@@H]2CSSC[C@H](NC(=O)[C@H](CCCNC(=N)N)NC(=O)[C@H](CCCCN)NC(=O)[C@H](CCCCN)NC(=O)[C@H](Cc3c[nH]cn3)NC1=O)C(=O)N1CCC[C@H]1C(=O)N[C@@H](Cc1c[nH]cn1)C(=O)N[C@H](Cc1ccccc1)C(=O)N[C@@H](Cc1c[nH]cn1)C(=O)N[C@@H](Cc1c[nH]c3ccccc13)C(=O)N2, also called c[c[Cys-Pro-His-D-Phe-His-Trp-Cys]-Ala-His-Lys-Lys-Arg]) [Chem. 96] | 0.04 nM | 57.7 nM | 0.04 nM
3 | cyclo(CKH[dF]HWCAKKKR) (disulfide 1-7; SMILES C[C@@H]1NC(=O)[C@@H]2CSSC[C@H](NC(=O)[C@H](CCCNC(=N)N)NC(=O)[C@H](CCCCN)NC(=O)[C@H](CCCCN)NC(=O)[C@H](CCCCN)NC1=O)C(=O)N[C@@H](CCCCN)C(=O)N[C@@H](Cc1c[nH]cn1)C(=O)N[C@H](Cc1ccccc1)C(=O)N[C@@H](Cc1c[nH]cn1)C(=O)N[C@@H](Cc1c[nH]c3ccccc13)C(=O)N2, also called c[c[Cys-Lys-His-D-Phe-His-Trp-Cys]-Ala-Lys-Lys-Lys-Arg]) [Chem. 78] | 0.04 nM | 3.8 nM | 0.02 nM
4 | cyclo(CKH[dF]HWCKKKKW) (disulfide 1-7; SMILES NCCCC[C@@H]1NC(=O)[C@H](CCCCN)NC(=O)[C@H](CCCCN)NC(=O)[C@@H]2CSSC[C@H](NC(=O)[C@H](Cc3c[nH]c4ccccc34)NC(=O)[C@H](CCCCN)NC1=O)C(=O)N[C@@H](CCCCN)C(=O)N[C@@H](Cc1c[nH]cn1)C(=O)N[C@H](Cc1ccccc1)C(=O)N[C@@H](Cc1c[nH]cn1)C(=O)N[C@@H](Cc1c[nH]c3ccccc13)C(=O)N2, also called c[c[Cys-Lys-His-D-Phe-His-Trp-Cys]-Lys-Lys-Lys-Lys-Trp]) [Chem. 77] | 0.46 nM | 49.8 nM | 0.72 nM
5 | cyclo(CKH[dF]HWCAKKKW) (disulfide 1-7; SMILES C[C@@H]1NC(=O)[C@@H]2CSSC[C@H](NC(=O)[C@H](Cc3c[nH]c4ccccc34)NC(=O)[C@H](CCCCN)NC(=O)[C@H](CCCCN)NC(=O)[C@H](CCCCN)NC1=O)C(=O)N[C@@H](CCCCN)C(=O)N[C@@H](Cc1c[nH]cn1)C(=O)N[C@H](Cc1ccccc1)C(=O)N[C@@H](Cc1c[nH]cn1)C(=O)N[C@@H](Cc1c[nH]c3ccccc13)C(=O)N2, also called c[c[Cys-Lys-His-D-Phe-His-Trp-Cys]-Ala-Lys-Lys-Lys-Trp]) [Chem. 76] | 0.16 nM | 21.8 nM | 0.09 nM
6 | cyclo(CPH[dF]HWCAKKHR) (disulfide 1-7; SMILES C[C@@H]1NC(=O)[C@@H]2CSSC[C@H](NC(=O)[C@H](CCCNC(=N)N)NC(=O)[C@H](Cc3c[nH]cn3)NC(=O)[C@H](CCCCN)NC(=O)[C@H](CCCCN)NC1=O)C(=O)N1CCC[C@H]1C(=O)N[C@@H](Cc1c[nH]cn1)C(=O)N[C@H](Cc1ccccc1)C(=O)N[C@@H](Cc1c[nH]cn1)C(=O)N[C@@H](Cc1c[nH]c3ccccc13)C(=O)N2, also called c[c[Cys-Pro-His-D-Phe-His-Trp-Cys]-Ala-Lys-Lys-His-Arg]) [Chem. 95] | 0.22 nM | 87.7 nM | 0.07 nM
7 | cyclo(C[dK]H[dF]HWCAKKKW) (disulfide 1-7; SMILES C[C@@H]1NC(=O)[C@@H]2CSSC[C@H](NC(=O)[C@H](Cc3c[nH]c4ccccc34)NC(=O)[C@H](CCCCN)NC(=O)[C@H](CCCCN)NC(=O)[C@H](CCCCN)NC1=O)C(=O)N[C@H](CCCCN)C(=O)N[C@@H](Cc1c[nH]cn1)C(=O)N[C@H](Cc1ccccc1)C(=O)N[C@@H](Cc1c[nH]cn1)C(=O)N[C@@H](Cc1c[nH]c3ccccc13)C(=O)N2, also called c[c[Cys-D-Lys-His-D-Phe-His-Trp-Cys]-Ala-Lys-Lys-Lys-Trp]) [Chem. 84] | 0.59 nM | 43.4 nM | 0.19 nM
